# From patent publication US10272050B2, “Nanoparticles and methods of use” (The Brigham and Women's Hospital, Inc., priority 2014, dated 2019)
# What was measured:
# [1] = Protein encapsulation efficiency and loading content (solvent-free loading, ELISA of unloaded protein); assay type: physicochemical; details: loaded into TNPs at 4° C. without organic solvents
# Protocol: The protein encapsulation efficiency and the loading content were determined by separation of unloaded proteins from TNPs using Amicon Ultra centrifugal filters (MWCO 100 kDa). Unloaded proteins were measured using a protein ELISA kit and Synergy HT multi-mode microplate reader (BioTek Instruments Inc., Winooski, Vt., USA) at […] absorbance.
# [2] = In vitro release of proteins from TNPs in PBS; assay type: physicochemical; details: 100 rpm, 37° C.
# Protocol: The protein-loaded nanoparticles were dispersed in 1 mL of phosphate-buffered saline solution (PBS) and subsequently incubated in a shaking incubator at 100 rpm and 37° C. At each time point, the protein released from nanoparticles was isolated using Amicon Ultra-0.5 centrifugal filters (MWCO 50 kDa) at 5,000 rpm for 2 min at 20° C. Then the protein-loaded nanoparticles were resuspended in PBS and incubated in the same manner until the last defined time point. The amount of released protein at each time point was measured at 450 nm using an ELISA kit. The measurements were done in triplicate.
# [3] = mouse, in vivo, iv
# Protocol: At 5 min, 30 min, 1 h, 2 h, 4 h, 8 h, 12 h, and 24 h post-injection, blood samples (0.5 mL) were drawn for serum protein concentration analysis. Next, the blood samples were placed at 4° C. overnight to allow the formation of a blood clot and centrifuged under 2,000×g for 15 min at 4° C. The serum samples were stored at −80° C. and analyzed using an ELISA kit. […] The AUC (area under the serum concentration-time curve) and AUMC (area under the first moment curve) were calculated using the trapezoidal rule.
# [4] = tested on: intracellular ROS in LPS-stimulated RAW 264.7 macrophage cells; assay: Inhibition of intracellular ROS in LPS-stimulated macrophages (DCFH2-DA); assay type: cell-based
# Protocol: To analyze the inhibitory effect of IL-10 on intracellular reactive oxygen species (ROS) generated from lipopolysaccharide (LPS)-stimulated macrophage cells, RAW 264.7 macrophage cells were seeded on a 24-well tissue culture plate at a density of 2×10^4 cells per well and then allowed to grow for 12 h. The cells were pre-treated with IL-10 at various concentrations (1 to 100 ng/mL) for 2 h and 24 h at 37° C. Then the medium was replaced with LPS solution (100 ng/mL), and the cells were further incubated for 4 h and 24 h at 37° C. The cells were then washed with PBS and incubated with 10 μM ROS detection reagent (DCFH2-DA) for 90 min at 37° C. Fluorescence intensity was measured using a Synergy HT multi-mode microplate reader with ex/em 485/528 nm filter (BioTek Instruments Inc).
# In order to determine the bioactive integrity of IL-10 released from or loaded into TNPs, cells seeded on a 24-well tissue culture plate (2×10^4 cells/well) were pre-treated with native IL-10, IL-10 released from TNPs (obtained at 48 h post-release), or IL-10-loaded TNPs at 50 ng/mL concentration for 24 h at 37° C. Next, the medium was replaced with LPS solution (100 ng/mL), and the cells were stimulated with LPS for 24 h at 37° C. After washing with PBS, intracellular ROS was measured using the detection method mentioned above. […]
# [5] = tested on: DNFB-induced allergic contact dermatitis; assay: DNFB-induced allergic contact dermatitis (ACD) model; assay type: in vivo, C57BL/6 mice; details: 100 μg IL-10/kg i.v. 2 h before DNFB, ear thickness at 36 h
# Protocol: C57BL/6 mice were administered i.v. saline, TNPs, IL-10, or IL-10-loaded TNPs (100 μg IL-10/kg). At 2 h post-injection, a 0.3% v/v solution of DNFB (2,4-dinitro-fluorobenzene) in acetone was applied the mice to the dorsal and ventral aspects of ear skin. Ear thickness was measured using an engineer's micrometer (Mitutoyo) at 36 h. The change of ear thickness is calculated as the difference between the treated ear and the contralateral ear treated with acetone alone.
# Ears were fixed in a 10% formalin solution, embedded in paraffin, and submitted for histological analysis by haematoxilin and eosin staining to the Harvard Rodent Histopathology Core.
# For ear-skin digestion, the dorsal and ventral aspects of the ear were mechanically separated before mincing and placing into a digestion mix consisting of DMEM (Gibco) supplemented with HEPES (Invitrogen), 2% FCS, 200 μg/mL Liberase TM (Roche), 10 μg/mL DNase I (Roche), and 5 mg/mL Collagenase D (Roche). Ears were digested for 80 minutes at 37° C. in gentleMACS tubes (Miltenyi) with gentle agitation in freshly prepared digestion mix. After enzymatic digestion, the mixture was processed using a gentleMACS homogenizer (Miltenyi) in order to obtain a cell suspension, which was then filtered through a 70 μm cell strainer (BD). Cells were then resuspended in FACS buffer for analysis. […]
# sIL-1Ra gene expression = assay: qPCR of sIL-1Ra in LPS-stimulated macrophage cells; assay type: cell-based; details: LPS 500 ng/mL 4 h, then IL-10 20 ng/mL 2 h
# Protocol: (§1) Macrophage cells were seeded on a 6-well tissue culture plate (5×10^5 cells/well) and maintained for 12 h. The cells were treated with LPS (500 ng/mL) for 4 h, the medium was replaced with IL-10 solution (native IL-10 or released IL-10 at 20 ng/mL), and the cells were incubated for 2 h at 37° C. Next, the cells were washed with PBS and harvested by scraping, followed by centrifugation at 2,000 rpm for 5 min at 4° C. The isolated cell pellets were used to prepare the total RNA using the RNeasy® Mini Kit (QIAGEN, Valencia, Calif., USA) according to the manufacturer's protocol. For the preparation of cDNA, the extracted RNA solution (1 μg/5 μL) was then mixed with 0.5 μL of Oligo (dT) 15 primer (Promega, Madison, Wis., USA) and then reacted at 70° C. for 5 min using the Bio-Rad iCycler PCR Thermal Cycler (Bio-Rad Laboratories, Inc., Hercules, Calif., USA). The mixture was subsequently placed on ice for 5 min and mixed with various components to a final volume of 20 μL: nuclease-free water (5.6 μL), 10 mM dNTP mixture (Promega, 1 μL), 25 mM MgCl2 (Promega, 2.4 μL), ImProm-II™ reverse transcriptase (Promega, 1 μL), ImProm-II™ 5× reaction buffer (Promega, 4 μL), and RNasin® Plus RNase inhibitor (Promega, 0.5 μL). […] The relative gene expression levels were calculated using the ΔΔCt method and normalized to the expression of the reference gene (β-Actin). […]
# [6] = tested on: STAT3 and phosphorylated STAT3 (P-STAT3 at Tyr705); assay: Western blot of STAT3 and P-STAT3 in unstimulated macrophage cells; assay type: cell-based; details: 20 ng/mL, 24 h; for Total levels of STAT3: β-Actin reference
# Protocol: To determine the bioactivity of IL-10 in unstimulated cells, macrophage cells seeded on a 6-well tissue culture plate (5×10^5 cells/well) were treated with IL-10 (native IL-10 or released IL-10 at 20 ng/mL) and incubated for 24 h at 37° C. Then the cells were washed with ice-cold PBS three times and harvested by scraping into Eppendorf tubes, followed by centrifugation at 12,000 rpm for 5 min at 4° C. For protein extraction, the cells were lysed in 200 μL of protein extraction reagent (Fisher Scientific, Pittsburgh, Pa., USA) supplemented with protease inhibitor cocktail and phosphatase inhibitor cocktail (Sigma-Aldrich), and then centrifuged at 12,000 rpm for 10 min at 4° C. to remove the nuclei. Next, protein concentration was measured using a Coomassie Plus-Bradford™ assay with bovine serum albumin as the protein standard. The cell lysates (with 30 μg of protein) were mixed with 4× Laemmli Sample Buffer (Bio-Rad), and the mixture was boiled for 7 min at 95° C. […] Then the membranes were blocked with Tris-Buffered Saline-0.1% Tween 20 (TBST) solution containing 5% BSA for 2 h at 4° C. on a shaker. The primary antibodies (1:1000 dilutions) in TBST with 3% BSA were incubated with the membranes overnight at 4° C. on a shaker. After that, the membranes were washed with TBST solution four times (each 10 min) and then incubated with secondary antibody (1:10,000 dilutions) in TBST with 3% BSA for 1 h at room temperature on a shaker. Finally, the membranes were washed with TBST solution five times and visualized using Amersham ECL prime western blotting detection reagent (GE Healthcare Life Sciences, Pittsburgh, Pa., USA). The primary and secondary antibodies used in this study were from Cell Signaling Technology (Danvers, Mass., USA) as follows: β-Actin (8H10D10) Mouse mAb, Stat3 (124H6) Mouse mAb, and Phospho-Stat3 (Tyr705) (3E2) Mouse mAb as a primary antibody, and anti-mouse IgG (HRP-linked) antibody as a secondary antibody.
# [7] = tested on: TNF-α and IL-12 gene expression; assay: qPCR of proinflammatory cytokines in LPS-stimulated macrophage cells; assay type: cell-based; details: LPS 500 ng/mL 4 h, then IL-10 20 ng/mL 2 h
# Protocol: as §1
molecule,measurement,setting,value
"lysozyme: lysozyme from chicken egg whites, model protein loaded into TNPs (1:20)",Encapsulation efficiency,[1],90%
same,Loading content,[1],1.8 wt %
same,Release profile from TNPs,[2],controlled-release kinetics up to a week
"recombinant mouse interleukin 10 (protein, UniProt P18893 19-178, looked up, recombinant mouse interleukin 10, Mw ~36 kDa, from R&D Systems) Interleukin-10: SRGQYSREDNNCTHFPVGQSHMLLELRTAFSQVKTFFQTKDQLDNILLTDSLMQDFKGYLGCQALSEMIQFYLVEVMPQAEKHGPEIKEHLNSLGEKLKTLRMRLRRCHRFLPCENKSKAVEQVKSDFNKLQDQGVYKAMNEFDIFINCIEAYMMIKMKS",Clearance,[3],32.9928 mL/min/kg
same,Improvement of half-life versus IL-10 alone,[3],5.9 fold
same,T1/2 terminal,[3],15 min
same,Vss,[3],0.70727 L/kg
same,"Inhibitory effect on ROS production, dose response","[4]; IL-10 1-100 ng/mL, LPS 100 ng/mL, pre-treatment",dose-dependent inhibition effect
same,Ear swelling,[5],reduction of ear swelling compared to the saline-treated control
same,Increase of sIL-1Ra mRNA expression compared to LPS alone,sIL-1Ra gene expression,1.5 fold
same,P-STAT3 (Tyr705) level,[6],clear band
same,Total levels of STAT3,[6],slightly increased
"released IL-10: IL-10 released from TNPs (obtained at 48 h post-release) (protein, UniProt P18893 19-178, looked up, released from nanoparticles) Interleukin-10: SRGQYSREDNNCTHFPVGQSHMLLELRTAFSQVKTFFQTKDQLDNILLTDSLMQDFKGYLGCQALSEMIQFYLVEVMPQAEKHGPEIKEHLNSLGEKLKTLRMRLRRCHRFLPCENKSKAVEQVKSDFNKLQDQGVYKAMNEFDIFINCIEAYMMIKMKS","Inhibitory effect on ROS production, pre-treatment (IL-10→LPS)","[4]; 50 ng/mL IL-10 24 h, then 100 ng/mL LPS 24 h",almost no statistical difference between the released IL-10 and native IL-10
same,Reduction of TNF-α and IL-12 expression,[7],ca. 2.5 fold
same,Increase of sIL-1Ra mRNA expression compared to LPS alone,sIL-1Ra gene expression,effects identical to those of the native protein
same,P-STAT3 (Tyr705) level,[6],almost identical
same,Total levels of STAT3,[6],almost identical
